T1: Human CD3eg linker (human)
T1 construct: Single chain: epsilon and gamma subunits of human CD3 joined by a 29-mer linker, Flag-tag at the C-terminus; also called recombinant human CD3
T1 chain: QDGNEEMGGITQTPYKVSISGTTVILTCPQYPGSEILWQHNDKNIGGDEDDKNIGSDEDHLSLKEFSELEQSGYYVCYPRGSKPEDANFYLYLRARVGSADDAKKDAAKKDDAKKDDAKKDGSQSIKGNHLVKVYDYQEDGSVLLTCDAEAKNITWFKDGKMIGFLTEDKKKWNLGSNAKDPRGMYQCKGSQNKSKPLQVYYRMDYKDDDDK

B1: H183/L072 VL S26A (antibody, name in Kabat numbering, V domains shown)
VH: QVQLVESGGGLVQPGRSLRLSCAASGFTFSNAWMHWVRQAPGKGLEWVAQIKDKGNAYAAYYAPSVKGRFTISRDDSKNSIYLQMNSLKTEDTAVYYCHYVHYASASTVLPAFGVDAWGQGTTVTVSS
VL: DIVMTQSPLSLPVTPGEPASISCQAAQELVHMNRNTYLHWYQQKPGQAPRLLIYKVSNRFPGVPDRFSGSGSGTDFTLKISRVEAEDVGVYYCAQGTSVPFTFGQGTKLEIK
notes: Dual-Ig
B2: H183/L072 VL A25V (antibody, name in Kabat numbering, V domains shown)
VH: B1 VH
VL: B1 VL with A25V, A26S
notes: Dual-Ig
B3: H183/L072 VL A25N (antibody, name in Kabat numbering, V domains shown)
VH: B1 VH
VL: B1 VL with A25N, A26S
notes: Dual-Ig
B4: H183/L072 VL A25M (antibody, name in Kabat numbering, V domains shown)
VH: B1 VH
VL: B1 VL with A25M, A26S
notes: Dual-Ig
B5: H183/L072 VL A25I (antibody, name in Kabat numbering, V domains shown)
VH: B1 VH
VL: B1 VL with A25I, A26S
notes: Dual-Ig
B6: H183/L072 VL A89H (antibody, name in Kabat numbering, V domains shown)
VH: B1 VH
VL: B1 VL with A26S, A94H
notes: Dual-Ig
B7: H183/L072 VL A89G (antibody, name in Kabat numbering, V domains shown)
VH: B1 VH
VL: B1 VL with A26S, A94G
notes: Dual-Ig
B8: H183/L072 VL A89K (antibody, name in Kabat numbering, V domains shown)
VH: B1 VH
VL: B1 VL with A26S, A94K
notes: Dual-Ig
B9: H183/L072 VL A25Q (antibody, name in Kabat numbering, V domains shown)
VH: B1 VH
VL: B1 VL with A25Q, A26S
notes: Dual-Ig
B10: H183/L072 VL A89F (antibody, name in Kabat numbering, V domains shown)
VH: B1 VH
VL: B1 VL with A26S, A94F
notes: Dual-Ig
B11: H183/L072 VL A89I (antibody, name in Kabat numbering, V domains shown)
VH: B1 VH
VL: B1 VL with A26S, A94I
notes: Dual-Ig
B12: H183/L072 VL A25L (antibody, name in Kabat numbering, V domains shown)
VH: B1 VH
VL: B1 VL with A25L, A26S
notes: Dual-Ig
B13: H183/L072 VL A89D (antibody, name in Kabat numbering, V domains shown)
VH: B1 VH
VL: B1 VL with A26S, A94D
notes: Dual-Ig
B14: H183/L072 VL A25G (antibody, name in Kabat numbering, V domains shown)
VH: B1 VH
VL: B1 VL with A25G, A26S
notes: Dual-Ig
B15: H183/L072 VL A25S (antibody, name in Kabat numbering, V domains shown)
VH: B1 VH
VL: B1 VL with A25S, A26S
notes: Dual-Ig
B16: H183/L072 VL A25P (antibody, name in Kabat numbering, V domains shown)
VH: B1 VH
VL: B1 VL with A25P, A26S
notes: Dual-Ig
B17: H183/L072 VL A89L (antibody, name in Kabat numbering, V domains shown)
VH: B1 VH
VL: B1 VL with A26S, A94L
notes: Dual-Ig
B18: H183/L072 VL A25T (antibody, name in Kabat numbering, V domains shown)
VH: B1 VH
VL: B1 VL with A25T, A26S
notes: Dual-Ig
B19: H183/L072 VL A89E (antibody, name in Kabat numbering, V domains shown)
VH: B1 VH
VL: B1 VL with A26S, A94E
notes: Dual-Ig
B20: H183/L072 VH Y59Q (antibody, name in Kabat numbering, V domains shown)
VH: B1 VH with Y62Q
VL: B1 VL with A26S
B21: H183/L072 VH Y59H (antibody, name in Kabat numbering, V domains shown)
VH: B1 VH with Y62H
VL: B1 VL with A26S
B22: H183/L072 VH Y59P (antibody, name in Kabat numbering, V domains shown)
VH: B1 VH with Y62P
VL: B1 VL with A26S
B23: H183/L072 VH Y94L (antibody, name in Kabat numbering, V domains shown)
VH: B1 VH with Y100L
VL: B1 VL with A26S
B24: H183/L072 VH Y97M (antibody, name in Kabat numbering, V domains shown)
VH: B1 VH with Y103M
VL: B1 VL with A26S
B25: H183/L072 VH Y59W (antibody, name in Kabat numbering, V domains shown)
VH: B1 VH with Y62W
VL: B1 VL with A26S
B26: H183/L072 VH Y94P (antibody, name in Kabat numbering, V domains shown)
VH: B1 VH with Y100P
VL: B1 VL with A26S
B27: H183/L072 VH Y59N (antibody, name in Kabat numbering, V domains shown)
VH: B1 VH with Y62N
VL: B1 VL with A26S
B28: H183/L072 VH Y97P (antibody, name in Kabat numbering, V domains shown)
VH: B1 VH with Y103P
VL: B1 VL with A26S
B29: H183/L072 VH Y59I (antibody, name in Kabat numbering, V domains shown)
VH: B1 VH with Y62I
VL: B1 VL with A26S
B30: H183/L072 VH Y59T (antibody, name in Kabat numbering, V domains shown)
VH: B1 VH with Y62T
VL: B1 VL with A26S
B31: H183/L072 VH Y59K (antibody, name in Kabat numbering, V domains shown)
VH: B1 VH with Y62K
VL: B1 VL with A26S
B32: H183/L072 VH Y59M (antibody, name in Kabat numbering, V domains shown)
VH: B1 VH with Y62M
VL: B1 VL with A26S
B33: H183/L072 VH Y94M (antibody, name in Kabat numbering, V domains shown)
VH: B1 VH with Y100M
VL: B1 VL with A26S
B34: H183/L072 VH Y94A (antibody, name in Kabat numbering, V domains shown)
VH: B1 VH with Y100A
VL: B1 VL with A26S
B35: H183/L072 VH Y97I (antibody, name in Kabat numbering, V domains shown)
VH: B1 VH with Y103I
VL: B1 VL with A26S
B36: H183/L072 VH Y97A (antibody, name in Kabat numbering, V domains shown)
VH: B1 VH with Y103A
VL: B1 VL with A26S
B37: H183/L072 VH Y59R (antibody, name in Kabat numbering, V domains shown)
VH: B1 VH with Y62R
VL: B1 VL with A26S
B38: H183/L072 VH Y94I (antibody, name in Kabat numbering, V domains shown)
VH: B1 VH with Y100I
VL: B1 VL with A26S
B39: H183/L072 VH Y59V (antibody, name in Kabat numbering, V domains shown)
VH: B1 VH with Y62V
VL: B1 VL with A26S
B40: H183/L072 VH Y59S (antibody, name in Kabat numbering, V domains shown)
VH: B1 VH with Y62S
VL: B1 VL with A26S
B41: H183/L072 VH Y59L (antibody, name in Kabat numbering, V domains shown)
VH: B1 VH with Y62L
VL: B1 VL with A26S
B42: H183/L072 VH Y97L (antibody, name in Kabat numbering, V domains shown)
VH: B1 VH with Y103L
VL: B1 VL with A26S

Changes are numbered by the printed parent chain. Numbers in names are those of the source.

T2 sequence (chain, as listed by the source limits assumed): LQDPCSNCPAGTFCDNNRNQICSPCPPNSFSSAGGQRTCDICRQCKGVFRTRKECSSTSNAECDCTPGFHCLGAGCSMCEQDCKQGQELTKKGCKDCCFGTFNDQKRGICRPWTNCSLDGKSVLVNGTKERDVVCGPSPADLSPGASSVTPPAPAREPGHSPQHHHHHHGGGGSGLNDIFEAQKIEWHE

The first experiment concerns the target T2, Human CD137 ECD (human).
T2 construct: entry includes C-terminal His-tag and biotin acceptor peptide; also called human CD137 extracellular domain; 4-1BB
In words: Biacore SPR, vs parent H183/L072. On the technique in general: SPR reads the build-up and loss of mass on a sensor chip optically.
B1: the “fold change of affinity” value came out at 0.8 fold. Still for that read-out and setting: to B2 belongs 0.5 fold.

As to B3, the “fold change of affinity” value came to 0.2 fold. Still for that read-out and setting: to B4 belongs 0.1 fold.

For the molecule B5, the “fold change of affinity” value was 0.2 fold. The same measure, in the same setting: to B6 belongs 0 fold. Turning to B7, the “fold change of affinity” value came to 0.5 fold.

B8: the “fold change of affinity” value turned out to be 0 fold. Same read-out and setting: to B9 belongs 0.1 fold; to B10, 0 fold; to B11, 0 fold.

With B12, the “fold change of affinity” value turned out to be 0.1 fold. Same read-out and setting: to B13 belongs 0 fold; to B14, 0.7 fold; to B15, 1.1 fold. Regarding B16, the “fold change of affinity” value was 1.4 fold.

On to B17, for which the “fold change of affinity” value is 0 fold. Take B18: the “fold change of affinity” value was 0.7 fold. The same measure, in the same setting: to B19 belongs 0 fold.

The next experiment addresses T1, Human CD3eg linker. In words: Biacore SPR, vs template H183/L072.
Regarding B20, the “fold change of affinity” value was 1.1 fold. With B21, the “fold change of affinity” value was determined as 1.4 fold.

For B22, the “fold change of affinity” value is 0.7 fold.

As for B23, the “fold change of affinity” value amounted to 0.8 fold. Same read-out and setting: to B24 belongs 0 fold. Same read-out and setting: to B25 belongs 0.6 fold; to B26, 0 fold; to B27, 1.2 fold. Same read-out and setting: to B28 belongs 0 fold; to B29, 0.9 fold; to B30, 1.2 fold.

As for B31, the “fold change of affinity” value was found to be 1.3 fold. Take B32: the “fold change of affinity” value was determined as 1 fold. Regarding B33, the “fold change of affinity” value was determined as 0 fold.

For B34, the “fold change of affinity” value is 0.4 fold. Regarding B35, the “fold change of affinity” value came out at 0 fold. Still for that read-out and setting: to B36 belongs 0 fold; to B37, 1.3 fold; to B38, 0 fold. Consider B39, for which the “fold change of affinity” value came to 1.2 fold. On the same count and under the same terms, to B40 belongs 1.1 fold; to B41, 1 fold. For B42, the “fold change of affinity” value turned out to be 0 fold.
